Here are results for 132 substances from the supplement of paper PMC12042874.

± gives the uncertainty stated by the source.

This series is described as follows: amyloid nucleation score (Sup35N fusion, yeast selection) (log enrichment); library NNK3; higher = more nucleation; inactive = no reads after selection. An outline of the steps: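 Output and input plasmid inserts were sequenced by Illumina after psi-negative yeast carrying Sup35N fused to peptides of 20 random codons had been induced 24 hours with 100 μM copper sulfate and grown 7 days at 30°C on medium lacking adenine and uracil. The nucleation score is the DiMSum log enrichment of output over input reads, centred on the mode score of non-aggregating sequences. Sequences with under 100 input reads were excluded.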

In the case of YPPWWFYIRNWLISEEE, the amyloid nucleation score entry is “inactive”.
To SDWRRISVLIMFTEARSFLV belongs “inactive”.
In the case of SSLPMGFRSVI, the amyloid nucleation score result is “inactive”.
To TLFFSNDRVRFGRSTSRCHM belongs “inactive”; to LRVRFTISWL, -0.471 ± 0.41; to VGLIRCLVDVKLI, “inactive”.
Turning to LLVSIFLGYPQ, the amyloid nucleation score entry is “inactive”.
GLNGIDLKLSVAGFVVFLGR returned an amyloid nucleation score of 1.48 ± 0.14.
The result for NSSAYFFDAAGSTRLDQASY reads “inactive”; that for SKTVDNGKMRKDWLGRQPWK, -0.362 ± 0.51.
With RSDNESGNV, the amyloid nucleation score result was “inactive”.
Turning to RKLFKKTFYLAPRL, the amyloid nucleation score entry is “inactive”.
Turning to EFLPKWDMQARDVTTLFGCP, the amyloid nucleation score entry is “inactive”.
As to PLLGSIFRFWWRGDTLMYRL, the amyloid nucleation score entry is “inactive”.
The result for SYVLLHHLLVMSWVRV reads “inactive”; that for SNPHDDSHDVILVFLVLGRC, “inactive”; that for KVMNLVRFRTDFLESNMRWC, 0.751 ± 0.17.
To TYIPFIIYLIGCVLVYVYVL belongs “inactive”; to VWIIEK, 1.99 ± 0.062; to HKDTSDFISHVRVSPWPNKG, “inactive”.
To NCCCLYP belongs 1.71 ± 0.091.
In the case of TYGGMSQSNLLRWCCFAWMY, the amyloid nucleation score entry is “inactive”.
YCMWLPFMVNFH showed an amyloid nucleation score of 2.58 ± 0.057.
For RFSRTDGRLWSCKTCQ, the amyloid nucleation score entry is “inactive”.
In turn, YNRANYAKRVCTSSVNVETE yielded an amyloid nucleation score of 0.294 ± 0.47.
Turning to LVYLQDLQLSSMLDFHSCM, the amyloid nucleation score entry was “inactive”.
Take GQDEPDCVG: the amyloid nucleation score came out at 0.014 ± 0.52.
As for DDIYKEVDRWKNWYRRLKHT, the amyloid nucleation score entry is “inactive”.
To FSSFLISYRYLIVFRQMVSI belongs “inactive”; to TVASYVNCKRFVLWNYWLFS, “inactive”.
To IQNSRNNKHYATFGTQFFMS belongs “inactive”; to CDNWLSYMWFYGNGAAPEGR, 2.06 ± 0.094.
NMMPREPDTFMGYSGRRLCV: the amyloid nucleation score is -0.284 ± 1.1.
Take LKPLGDSADGRWQLLWNSAD: the amyloid nucleation score result is “inactive”.
The result for GSKCWPDLQMLIFEVVHHRA reads “inactive”; that for TSERLMVSQITAHILGFHEI, “inactive”.
GFEPRRYP: the amyloid nucleation score is -0.646 ± 1.3.
Turning to ALRRVMVICLFKLDSEAHST, the amyloid nucleation score entry is “inactive”.
Turning to VYTTS, the amyloid nucleation score entry was “inactive”.
For CSYYFQLNMVSKECPRS, the amyloid nucleation score worked out at 0.562 ± 0.14.
As for MVNTKTISYWPKDSQHLRV, the amyloid nucleation score result is “inactive”.
Consider KCSRDRWQIVKMFMRMTVAI, for which the amyloid nucleation score result was “inactive”.
Consider LSFTEY, for which the amyloid nucleation score result is “inactive”.
FVYDMHKHQIALRQVSSCEG: the amyloid nucleation score entry was “inactive”.
Take PKISFSGWM: the amyloid nucleation score entry was “inactive”.
RFLDRTLIGYVCGKRRSPSS: the amyloid nucleation score entry is “inactive”.
To NCFMRLMVFAKRVIGCLQPP belongs 0.15 ± 0.43; to SMADHAESLNSSGSNRQQLG, “inactive”.
Turning to FGAMGGCGNRWKFYQRFTDP, the amyloid nucleation score entry is “inactive”.
Take KVCRAYWYYPNFTMSRT: the amyloid nucleation score entry was “inactive”.
In turn, LLYIRC registered an amyloid nucleation score of 0.705 ± 0.23.
With GELKFLVLNRFE, the amyloid nucleation score entry is “inactive”.
VIMYHMKFDNEIWVMHLLRN: the amyloid nucleation score result is “inactive”.
PMQAS: the amyloid nucleation score entry is “inactive”.
Regarding DYDRIR, the amyloid nucleation score entry is “inactive”.
With SLGSVVTSFASEMWTADGTR, the amyloid nucleation score entry is “inactive”.
As to GFSLFYYL, the amyloid nucleation score entry was “inactive”.
As to NKYLMINLGYQGSKENDIGV, the amyloid nucleation score result is “inactive”.
The result for LFDILGMYEDMASVGFCIPQ reads “inactive”.
CGTSHVMFWHVPRGVLKRMY: the amyloid nucleation score result was “inactive”.
SYRIIEWCSLGKDNLDIRTG: the amyloid nucleation score entry was “inactive”.
As to RFQFEGREFCLGMLDFNSWI, the amyloid nucleation score entry was “inactive”.
Substance KEVMFR yielded an amyloid nucleation score of 1.64 ± 0.12.
For the substance LWFCLFPPWITSCPFRLCRA, the amyloid nucleation score entry is “inactive”.
In the case of GRDLLLRHTMSRGCQILLE, the amyloid nucleation score result is “inactive”.
With VDSWSRGQVSQLGRSQWADI, the amyloid nucleation score was 0.68 ± 0.31.
Consider DCKINIGVVVSLGACLSWSE, for which the amyloid nucleation score was found to be 1.65 ± 0.084.
As to VNVEFLASVFPWNISKKCEQ, the amyloid nucleation score entry was “inactive”.
The result for NNLSNWIRKVCNSYYHPTYQ reads “inactive”.
To RKIETLWVYIYRLFRLGEQV belongs “inactive”; to KMDKFPV, 0.391 ± 0.34; to YMACGHVAGPVH, “inactive”.
As to PYFRMVNYYFFMTVSGRFNF, the amyloid nucleation score was -0.507 ± 1.
As for LSVFDMGIRKM, the amyloid nucleation score entry was “inactive”.
In turn, RLRRLCYSSGELDALGLCVW registered an amyloid nucleation score of 0.261 ± 0.42.
RCSHDYGLWVVDWVVSKWGC: the amyloid nucleation score result is “inactive”.
Turning to AGFAMYFGFVGYNFSFPWG, the amyloid nucleation score amounted to 1.17 ± 0.19.
Take CIREKLILIMTSRSIMLLKS: the amyloid nucleation score entry is “inactive”.
As to GSRKYRCVDIISFGEWAVLD, the amyloid nucleation score result is “inactive”.
The result for VSCYVTHISYRSSFGSMFYS reads “inactive”; that for EVLGSLFYFGYTTGLFIPF, “inactive”; that for SGMLDWDWVSRVSIGVCKVW, “inactive”.
For PVLWPLFKYVCFLTW, the amyloid nucleation score entry is “inactive”.
PQLWSMYHSGP: the amyloid nucleation score was -0.586 ± 1.4.
IVFMRLRMRVICPLCSVRLS registered an amyloid nucleation score of 0.385 ± 0.2.
As for GISTGISWQLCGHSGDWYWW, the amyloid nucleation score is -0.658 ± 1.9.
With LSLSM, the amyloid nucleation score result was “inactive”.
Consider YLWGGLRMYCRKLQHYFVLS, for which the amyloid nucleation score entry is “inactive”.
Regarding NDYCPLYIGHVGRFHPAKDV, the amyloid nucleation score result is “inactive”.
The substance VNISVRQALHANYVGTCFVC yielded an amyloid nucleation score of 1.85 ± 0.084.
On to ELRSHKLMMGRQYLHRLCSV, for which the amyloid nucleation score result was “inactive”.
To VCKMSNMFNSFCYYASQFCY belongs “inactive”.
As for QLGFWKELSSSHS, the amyloid nucleation score result was “inactive”.
Consider VLAKLVFKPYKKGVISQ, for which the amyloid nucleation score result is “inactive”.
On to LNLLKLRKKAPHRPIPGRSG, for which the amyloid nucleation score entry is “inactive”.
To VKNIGS belongs “inactive”; to NYRRTCTVLSDGYFNYIT, “inactive”.
For SYYYPNIVRIEHPHCTRHHA, the amyloid nucleation score entry is “inactive”.
AMFTRSRVSITLCGRWAYCS: the amyloid nucleation score result is “inactive”.
As for LILNYGGLPWFIPIP, the amyloid nucleation score entry is “inactive”.
Consider DRISSNDMCGWESGVISIHD, for which the amyloid nucleation score result was “inactive”.
Take FVSLHTRLGDLHDVVCTLVF: the amyloid nucleation score entry is “inactive”.
Regarding IVYLRKPCYNW, the amyloid nucleation score entry was “inactive”.
With FLSIRFV, the amyloid nucleation score entry is “inactive”.
The result for SMYVYPFELVSVDGRLVRTA reads “inactive”; that for FRCSG, “inactive”.
The substance RYNRDGMTYMSISFPRGPYL came in with an amyloid nucleation score of 1.27 ± 0.12.
Turning to ELSSLSFHIHNMEFREKVKG, the amyloid nucleation score result is “inactive”.
For INMALYSSLNLVG, the amyloid nucleation score was 1.32 ± 0.078.
Regarding GFKVVSSLDFSCG, the amyloid nucleation score is 0.55 ± 0.31.
CVDYKRMNGFKCTLDVFRAI displayed an amyloid nucleation score of 0.184 ± 0.61.
With ISQCVCSSYA, the amyloid nucleation score is -0.265 ± 0.7.
As to PCASLM, the amyloid nucleation score entry is “inactive”.
VSFLMIYLSSNCSVSVRYHY: the amyloid nucleation score result is “inactive”.
ECGWNMFCDRAHMSLGFYSM: the amyloid nucleation score result is “inactive”.
Regarding SDCYCNSQAVAWLFDRVFVF, the amyloid nucleation score result is “inactive”.
As for VSYVGLDSDICSFNWLSLLA, the amyloid nucleation score entry is “inactive”.
In the case of MCWLVWLSPRSNDCVDHRFD, the amyloid nucleation score is -0.163 ± 0.46.
To GRLCYNSTNYLRHAASCLSM belongs “inactive”; to KTACFLVNCLNYQRAERTLR, 1.23 ± 0.18; to GLSMLGGLNDSRTCSLVSNV, “inactive”.
Consider GKLTWIYIGIARPHEKMWLT, for which the amyloid nucleation score result is “inactive”.
With RSIGIAFLGIVGVYNMLASQ, the amyloid nucleation score was -0.195 ± 0.59.
To YVEMYN belongs “inactive”; to EGYRFCCGMLIN, “inactive”; to VITIAIELLGVLFVCIGTIV, “inactive”.
On to IMSRCKNSYASLATVSCRSL, for which the amyloid nucleation score entry was “inactive”.
The result for IGLFNTNVWKCFDCDTPAMF reads “inactive”; that for FQNLAYMITAAPASGKKTSR, “inactive”.
To KDELCH belongs 1.81 ± 0.11; to SGALAKDVSVGVCVRPARLY, 0.653 ± 0.19; to ISIVKGCAFGLLSTFMATPS, 0.079 ± 0.75.
